{"source": "paper PMC6515277", "origin": "cited, not measured here", "key": {"[1]": {"target": "merlin CTD CTD (Homo sapiens) (UniProt P35240)", "experiment": "ITC"}, "[2]": {"target": "merlin CTD CTD (Homo sapiens) (UniProt P35240)", "experiment": "ITC", "remark": "listed apart in the source"}}, "note": "pKd: −log10 of the molar value. Read-outs that look alike come from different tables or passages of the source.", "data": [{"substance": "merlin FERM FERM (from UniProt P35240)", "values": [{"measurement": "pKd", "setting": "[1]", "result": 5.40}, {"measurement": "pKd", "setting": "[2]", "result": 5.40}]}]}
